The test has as its target T1, glutathione S-transferase-calreticulin (GST-CRT) (UniProt P15253 18-418).
T1 construct: calreticulin from the plasmid pGEX-3X-GST-CRT (Baksh and Michalak, 1991; from M. Michalak); also called WT GST-CRT; GST-CRT-WT; source: E. coli BL21, purified (glutathione sepharose)
T1 sequence (looked up): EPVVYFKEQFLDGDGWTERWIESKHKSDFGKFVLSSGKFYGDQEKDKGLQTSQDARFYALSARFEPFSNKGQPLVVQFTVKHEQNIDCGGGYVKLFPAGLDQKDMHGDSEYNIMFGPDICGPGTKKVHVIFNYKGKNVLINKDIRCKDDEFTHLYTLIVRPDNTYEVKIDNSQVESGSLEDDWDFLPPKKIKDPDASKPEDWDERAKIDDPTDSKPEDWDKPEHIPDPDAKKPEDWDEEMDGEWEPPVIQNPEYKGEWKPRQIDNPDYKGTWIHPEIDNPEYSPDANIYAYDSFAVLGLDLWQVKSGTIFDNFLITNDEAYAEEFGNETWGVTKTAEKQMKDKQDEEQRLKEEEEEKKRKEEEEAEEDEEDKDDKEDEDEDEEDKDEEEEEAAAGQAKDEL
As to the kind of experiment: pull-down; GST-CRT or GST-CRT-Y109A on glutathione beads, 16 h at 4 C with lysate (MNT: 20 mM MES, 100 mM NaCl, 30 mM Tris pH 7.5, 0.5% Triton X-100, protease inhibitors, 20 mM NEM) of ALG6-/-, ALG6/UGGT1-/- or ALG6/UGGT2-/- HEK293-EBNA1-6E cells treated with 500 uM DNJ for 14 h; immunoblot; percent reglucosylation = (GST-CRT lane minus Y109A lane) / total in whole cell lysate x 100. Conditions: one partner purified. (In western blotting, separated proteins are transferred to a membrane and probed.)

The record followed here is PMC7771966, “Quantitative glycoproteomics reveals cellular substrate selectivity of the ER protein quality control sensors UGGT1 and UGGT2” (eLife, 2020).

B1: ectonucleotide pyrophosphatase/phosphodiesterase family member 1 (ENPP1) (enzyme, human (endogenous in HEK293-EBNA1-6E), UniProt P22413 1-925, looked up)
chain: MERDGCAGGGSRGGEGGRAPREGPAGNGRDRGRSHAAEAPGDPQAAASLLAPMDVGEEPLEKAARARTAKDPNTYKVLSLVLSVCVLTTILGCIFGLKPSCAKEVKSCKGRCFERTFGNCRCDAACVELGNCCLDYQETCIEPEHIWTCNKFRCGEKRLTRSLCACSDDCKDKGDCCINYSSVCQGEKSWVEEPCESINEPQCPAGFETPPTLLFSLDGFRAEYLHTWGGLLPVISKLKKCGTYTKNMRPVYPTKTFPNHYSIVTGLYPESHGIIDNKMYDPKMNASFSLKSKEKFNPEWYKGEPIWVTAKYQGLKSGTFFWPGSDVEINGIFPDIYKMYNGSVPFEERILAVLQWLQLPKDERPHFYTLYLEEPDSSGHSYGPVSSEVIKALQRVDGMVGMLMDGLKELNLHRCLNLILISDHGMEQGSCKKYIYLNKYLGDVKNIKVIYGPAARLRPSDVPDKYYSFNYEGIARNLSCREPNQHFKPYLKHFLPKRLHFAKSDRIEPLTFYLDPQWQLALNPSERKYCGSGFHGSDNVFSNMQALFVGYGPGFKHGIEADTFENIEVYNLMCDLLNLTPAPNNGTHGSLNHLLKNPVYTPKHPKEVHPLVQCPFTRNPRDNLGCSCNPSILPIEDFQTQFNLTVAEEKIIKHETLPYGRPRVLQKENTICLLSQHQFMSGYSQDILMPLWTSYTVDRNDSFSTEDFSNCLYQDFRIPLSPVHKCSFYKNNTKVSYGFLSPPQLNKNSSGIYSEALLTTNIVPMYQSFQVIWRYFHDTLLRKYAEERNGVNVVSGPVFDFDYDGRCDSLENLRQKRRVIRNQEILIPTHFFIVLTSCKDTSQTPLHCENLDTLAFILPHRTDNSESCVHGKHDSSWVEELLMLHRARITDVEHITGLSFYQQRKEPVSDILKLKTHLPTFSQED
modifications: monoglucosylated N-glycans (reglucosylated by the UGGTs; sites not stated)
notes: ectonucleotide pyrophosphatase/phosphodiesterase family member 1, human, endogenous; source: endogenous, lysate of CRISPR-edited HEK293-EBNA1-6E cells (ALG6-/- background), DNJ treated
With B1, the “percent reglucosylation (bound by GST-CRT minus GST-CRT-Y109A, of the total in the lysate), ALG6/UGGT2-/- cells” value was found to be 12%.

B2: β-hexosaminidase subunit β (HexB), immature ER-localized proHexB (enzyme, human (endogenous in HEK293-EBNA1-6E), UniProt P07686 43-556, looked up)
chain: ARAPSVSAKPGPALWPLPLLVKMTPNLLHLAPENFYISHSPNSTAGPSCTLLEEAFRRYHGYIFGFYKWHHEPAEFQAKTQVQQLLVSITLQSECDAFPNISSDESYTLLVKEPVAVLKANRVWGALRGLETFSQLVYQDSYGTFTINESTIIDSPRFSHRGILIDTSRHYLPVKIILKTLDAMAFNKFNVLHWHIVDDQSFPYQSITFPELSNKGSYSLSHVYTPNDVRMVIEYARLRGIRVLPEFDTPGHTLSWGKGQKDLLTPCYSRQNKLDSFGPINPTLNTTYSFLTTFFKEISEVFPDQFIHLGGDEVEFKCWESNPKIQDFMRQKGFGTDFKKLESFYIQKVLDIIATINKGSIVWQEVFDDKAKLAPGTIVEVWKDSAYPEELSRVTASGFPVILSAPWYLDLISYGQDWRKYYKVEPLDFGGTQKQKQLFIGGEACLWGEYVDATNLTPRLWPRASAVGERLWSSKDVRDMDDAYDRLTRHRCRMVERGIAAQPLYAGYCNHENM
modifications: monoglucosylated N-glycans (reglucosylated by the UGGTs; sites not stated)
notes: beta-hexosaminidase subunit beta, human, endogenous; the immature or ER-localized pro form, not yet processed into three chains; By immunoblot only proHexB was purified by GST-CRT; source: endogenous, lysate of CRISPR-edited HEK293-EBNA1-6E cells (ALG6-/- background), DNJ treated
As to B2, the “percent reglucosylation (bound by GST-CRT minus GST-CRT-Y109A, of the total in the lysate), ALG6/UGGT2-/- cells” value came to 20%.
